Laboratory results: ChEMBL document CHEMBL2074354, “Chlorambucil-taurocholate is transported by bile acid carriers expressed in human hepatocellular carcinomas” (Gastroenterology, 1997)

Substrate: [H][C@]12CC[C@]3([H])[C@]([H])(C[C@H](O)[C@]4(C)C(C(C)CCC(=O)NCCS(=O)(=O)O)CC[C@@]34[H])[C@@]1(C)CC[C@H](OCCNC(=O)CCCc1ccc(N(CCCl)CCCl)cc1)C2
Experiment: TP_TRANSPORTER: uptake in Xenopus laevis oocytes
Type: functional, cell-based, Oocyte

B1: Hepatic sodium/bile acid cotransporter (Homo sapiens) (protein)
chain: MEAHNASAPFNFTLPPNFGKRPTDLALSVILVFMLFFIMLSLGCTMEFSKIKAHLWKPKGLAIALVAQYGIMPLTAFVLGKVFRLKNIEALAILVCGCSPGGNLSNVFSLAMKGDMNLSIVMTTCSTFCALGMMPLLLYIYSRGIYDGDLKDKVPYKGIVISLVLVLIPCTIGIVLKSKRPQYMRYVIKGGMIIILLCSVAVTVLSAINVGKSIMFAMTPLLIATSSLMPFIGFLLGYVLSALFCLNGRCRRTVSMETGCQNVQLCSTILNVAFPPEVIGPLFFFPLLYMIFQLGEGLLLIAIFWCYEKFKTPKDKTKMIYTAATTEETIPGALGNGTYKGEDCSPCTA
B1 gave a Km of 11 µM.
